Experimental findings from patent US9617326B2, “RTRAIL mutant and monomethyl auristatin E conjugate thereof” (Zhejiang University, priority 2012, dated 2017) are described below.

The data set deals with HEK293 cells. The data set is described as follows: In vitro killing/toxicity (CCK-8) on normal HEK293 cells. The format is cell-based. The note with it: 32-1000 ng/mL, 96 hours. From the text:
4 types of cells were selected to measure in vitro anti-tumor activity of the rTRAIL mutant and the MMAE conjugate: TRAIL sensitive type (NCI-H460), TRAIL insensitive type (Hela), TRAIL resistant type (MCF-7) and normal cells (HEK293). All of these 4 types of cells had TRAIL death receptor on their surfaces.
Hereinafter, TRAIL sensitive type NCI-H460 cell was taken as an example to give detailed description of the test procedure, including the following steps:
(1) Digesting the NCI-H460 cells into individual cells, followed by diluting to 1×10^4 cells/mL, spreading the cells on 96-well plate (100 μL for each well), and culturing the cells for 24 hours under normal condition.
(2) Diluting N109C, N109C-vcMMAE and S96C-vcMMAE with culture medium respectively, and adding them into the cell plate with final concentrations of 32, 63, 125, 250, 500, 1000 ng/mL for serving as the test groups, while using standard TRAIL (114-281) as the positive control group, using the buffer (used for dissolving the test sample, diluted with the culture medium in a same manner) as the negative control group, and using the culture medium (without adding any solution) as the blank control group. All the control groups and test groups were tested in triplicate. […]

Regarding “TRAIL (114-281): standard TRAIL (114-281) used as the positive control group”, the “toxicity to normal cells” value is given as “considerably low toxicity”.
